# The Immune Epitope Database (IEDB)
# Experiments:
# [1] = biological target: HLA-A*24:03; experiment: IEDB peptide-MHC binding, purified MHC/direct/fluorescence; filed as Kd, often an IC50 or EC50 that approximates it; ≥ and ≤ were set here for values at or beyond the usual limits of such assays; settings: source organism: Vibrio parahaemolyticus
# [2] = biological target: HLA-A*30:01; experiment: IEDB peptide-MHC binding, purified MHC/competitive/radioactivity; filed as Kd, often an IC50 or EC50 that approximates it; ≥ and ≤ were set here for values at or beyond the usual limits of such assays
# [3] = biological target: HLA-A*11:01; experiment: as above; settings: source organism: Dengue virus 3 Martinique/1243/1999
# [4] = biological target: HLA-A*26:01; experiment: as above
# [5] = biological target: HLA-B*08:01; experiment: as above
# [6] = biological target: HLA-A*68:02; experiment: as above
# [7] = biological target: HLA-B*51:01; experiment: IEDB peptide-MHC binding, purified MHC/competitive/fluorescence; filed as Kd, often an IC50 or EC50 that approximates it; ≥ and ≤ were set here for values at or beyond the usual limits of such assays
# [8] = biological target: HLA-A*68:01; experiment: IEDB peptide-MHC binding, purified MHC/competitive/radioactivity; filed as Kd, often an IC50 or EC50 that approximates it; ≥ and ≤ were set here for values at or beyond the usual limits of such assays; settings: source organism: Dengue virus 1 Brazil/97-11/1997
# [9] = biological target: HLA-B*35:01; experiment: as above
# [10] = biological target: HLA-A*02:02; experiment: as above
# [11] = biological target: HLA-A*02:03; experiment: as above
# [12] = biological target: HLA-A*02:06; experiment: as above
# [13] = biological target: HLA-B*15:01; experiment: as above
# [14] = biological target: HLA-A*03:01; experiment: as above; settings: source organism: Dengue virus 4 Philippines/H241/1956
# [15] = biological target: HLA-A*02:01; experiment: IEDB peptide-MHC binding, purified MHC/competitive/fluorescence; filed as Kd, often an IC50 or EC50 that approximates it; ≥ and ≤ were set here for values at or beyond the usual limits of such assays; settings: source organism: Variola virus
# [16] = biological target: HLA-B*51:01; experiment: IEDB peptide-MHC binding, purified MHC/competitive/radioactivity; filed as Kd, often an IC50 or EC50 that approximates it; ≥ and ≤ were set here for values at or beyond the usual limits of such assays; settings: source organism: Dengue virus 4 Philippines/H241/1956
# [17] = biological target: HLA-B*53:01; experiment: as above; settings: source organism: Dengue virus 3 Singapore/8120/1995
# [18] = source organism: Dengue virus 1 Brazil/97-11/1997
# [19] = source organism: Dengue virus 3 Martinique/1243/1999
# [20] = source organism: Dengue virus 2 16681-PDK53
# [21] = source organism: Vaccinia virus WR
# [22] = source organism: Dengue virus 2 Jamaica/1409/1983
# [23] = source organism: Mammarenavirus juninense
# [24] = source organism: Dengue virus 4 Philippines/H241/1956
sequence,measurement,setting,value
AFYLWIVGF,Kd,[1],2100 nM
AIFMTATPPG,Kd,[2]; [18],179 nM
ATQLATLRK,Kd,[3],67.8 nM
same,Kd,[2]; [19],5.76 nM
CTILAVVSVS,Kd,[4]; [20],≥ 69700 nM
same,Kd,[2]; [20],9700 nM
DLRRRFDTF,Kd,[5]; [21],1.58 nM
EAAAIFMTA,Kd,[6]; [18],0.301 nM
ELMMATIGI,Kd,[6]; [22],1.03 nM
ENRLHKECL,Kd,[5]; [21],73.2 nM
EPNFSIPQI,Kd,[7]; source organism: Mycobacterium tuberculosis variant bovis BCG str. Pasteur 1173P2,268 nM
ETACLGKAYA,Kd,[4]; [19],207 nM
same,Kd,[6]; [19],3.62 nM
FALLKFTYL,Kd,[5]; [21],1.59 nM
FNKDIFVSL,Kd,[5]; [21],277 nM
FTNMEVQLIR,Kd,[8],87.4 nM
same,Kd,[9]; [18],14600 nM
GGALVRNPLS,Kd,[2]; [22],5290 nM
GLSQFTQTV,Kd,[10]; [23],3.92 nM
same,Kd,[11]; [23],0.699 nM
same,Kd,[12]; [23],721 nM
same,Kd,[6]; [23],≥ 26000 nM
GMNSRSTSL,Kd,[11]; [22],18.2 nM
same,Kd,[5]; [22],7.81 nM
same,Kd,[13]; [22],86.6 nM
HASPTLFNA,Kd,[2]; [21],66.3 nM
HLIFSYAFL,Kd,[2]; [21],213 nM
HMILVVVTTL,Kd,[5]; [24],5170 nM
same,Kd,[13]; [24],408 nM
IFKLTYQNK,Kd,[2]; [22],340 nM
ILKNSQGEEV,Kd,[12]; source organism: Homo sapiens,≥ 72500 nM
same,Kd,[6]; source organism: Homo sapiens,2250 nM
ILKRWGQLK,Kd,[14],3.58 nM
same,Kd,[2]; [24],318 nM
IMGQLTWNDL,Kd,[5]; [18],6490 nM
IPNDFKELV,Kd,[7]; source organism: Rickettsia typhi str. Wilmington,446 nM
KAERVIDPRR,Kd,[2]; [22],11400 nM
KARDALDNL,Kd,[2]; [22],71.5 nM
KARNALDNL,Kd,[2]; [20],19.7 nM
KTMMINPFM,Kd,[2]; [21],0.362 nM
KVIVRNLNK,Kd,[2]; [21],1.44 nM
KVKNVHIGG,Kd,[2]; [21],0.338 nM
LALDSYWPV,Kd,[7]; source organism: Yersinia pestis Nepal516,711 nM
LDILTEIASL,Kd,[5]; [24],871 nM
LIDNPDNNL,Kd,[15],77.6 nM
LLITHYAII,Kd,[11]; [19],18.1 nM
same,Kd,[5]; [19],371 nM
LLNVKMALDI,Kd,[11]; source organism: Homo sapiens,83.2 nM
same,Kd,[6]; source organism: Homo sapiens,1000 nM
LLSGAGEHL,Kd,[10]; source organism: Homo sapiens,5.73 nM
same,Kd,[11]; source organism: Homo sapiens,19.2 nM
same,Kd,[6]; source organism: Homo sapiens,≥ 47200 nM
LPVYLMTLMK,Kd,[9]; [24],330 nM
same,Kd,[16],7150 nM
LSYEPDNIV,Kd,[7]; source organism: Listeria monocytogenes 10403S,≥ 20000 nM
LVKESMASL,Kd,[10]; [21],1120 nM
same,Kd,[11]; [21],9.46 nM
same,Kd,[12]; [21],136 nM
same,Kd,[2]; [21],94.8 nM
MAIGIVSILL,Kd,[6]; [18],15 nM
MAMVLSIVSL,Kd,[5]; source organism: Dengue virus 1 Singapore/S275/1990,830 nM
MPGIFQTTTG,Kd,[9]; source organism: Dengue virus 3 Singapore/8120/1995,1180 nM
same,Kd,[17],546 nM
MRFKKESSL,Kd,[5]; [21],3.4 nM
MRGAKRMAI,Kd,[5]; [22],2.44 nM
MSKIKHKIF,Kd,[5]; [21],0.842 nM
MSRKFMQVY,Kd,[2]; [21],1.46 nM
MVNGVVRLL,Kd,[6]; [22],25.8 nM
